From patent US20140161799A1 (ARCH ONCOLOGY, published 2014)

T1: rat CD47 (rat, UniProt P97829 19-303)
T1 construct: whole, on cells; also called CD47 on rat red blood cells
T1 sequence (looked up): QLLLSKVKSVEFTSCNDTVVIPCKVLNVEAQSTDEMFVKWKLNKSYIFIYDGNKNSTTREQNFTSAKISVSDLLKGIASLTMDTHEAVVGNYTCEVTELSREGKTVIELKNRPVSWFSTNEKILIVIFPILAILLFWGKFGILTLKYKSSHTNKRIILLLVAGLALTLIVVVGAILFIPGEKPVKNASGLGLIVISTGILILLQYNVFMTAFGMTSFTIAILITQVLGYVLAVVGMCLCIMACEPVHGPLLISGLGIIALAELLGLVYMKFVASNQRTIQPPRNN

T2: mouse CD47 (mouse, UniProt Q61735 19-303)
T2 construct: whole, on cells; also called CD47 on mouse red blood cells
T2 sequence (looked up): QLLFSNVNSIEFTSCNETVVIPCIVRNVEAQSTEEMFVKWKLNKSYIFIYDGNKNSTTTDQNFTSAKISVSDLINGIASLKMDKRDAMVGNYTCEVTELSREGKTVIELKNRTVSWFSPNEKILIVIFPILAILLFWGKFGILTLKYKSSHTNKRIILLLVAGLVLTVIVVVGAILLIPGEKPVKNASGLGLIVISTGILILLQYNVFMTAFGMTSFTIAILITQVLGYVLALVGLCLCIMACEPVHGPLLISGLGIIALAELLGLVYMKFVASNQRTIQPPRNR

T3: pig CD47 (pig, UniProt Q9GKE8 19-303)
T3 construct: whole, on cells; also called CD47 on pig red blood cells
T3 sequence (looked up): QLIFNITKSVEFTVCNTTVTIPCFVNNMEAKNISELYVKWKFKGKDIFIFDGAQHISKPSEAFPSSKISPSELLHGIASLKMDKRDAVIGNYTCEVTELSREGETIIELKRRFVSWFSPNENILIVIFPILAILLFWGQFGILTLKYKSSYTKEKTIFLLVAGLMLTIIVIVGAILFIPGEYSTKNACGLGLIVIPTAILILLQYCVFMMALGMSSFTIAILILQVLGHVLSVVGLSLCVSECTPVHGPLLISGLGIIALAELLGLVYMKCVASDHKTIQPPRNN


Legend:
Assay in all cases: flow cytometry on RBCs, antibody 10 ng/ml
rat CD47 = biological target: T1, rat CD47
Protocol: (§1) Cross species reactivity of humanized antibodies of the present invention is determined using freshly isolated red blood cells (RBCs), which display CD47 on their surface, from human, mouse, rat, and pig according to the methods disclosed in Kamel et al. (2010) Blood. Transfus. 8(4):260-266.
(§2) RBCs are incubated for 60 minutes on ice with tissue culture supernatants containing the secreted humanized antibodies at a concentration of 10 ng/ml in a solution of phosphate buffered saline, pH 7.2, 2.5 mM EDTA (PBS+E). Cells are then washed with cold PBS+E, and incubated for an additional hour on ice with FITC labeled donkey anti-human antibody (Jackson Immuno Research Labs, West Grove, Pa.; Catalogue #709-096-149) in PBS+E. Cells are then washed with PBS+E, and antibody binding is analyzed using a BD FACSAria Cell Sorter (Becton Dickinson) or a C6 Accuri Flow Cytometer (Becton Dickinson). Antibody binding is quantitated by comparison of mean fluorescence values relative to that of chimeric antibody >VxP037-01LC (SEQ ID NO:7))/>VxP037-01HC (SEQ ID NO:57). The mean fluorescence value for each antibody is divided by the mean fluorescence value for the chimeric antibody.

mouse CD47 = biological target: T2, mouse CD47
Protocol: as §1, §2

pig CD47 = biological target: T3, pig CD47
Protocol: as §1, §2

human CD47 = biological target: T4, human CD47 (human, UniProt Q08722 19-323)
T4 construct: whole, on cells; also called CD47 on human red blood cells
T4 sequence (Q08722 19-323): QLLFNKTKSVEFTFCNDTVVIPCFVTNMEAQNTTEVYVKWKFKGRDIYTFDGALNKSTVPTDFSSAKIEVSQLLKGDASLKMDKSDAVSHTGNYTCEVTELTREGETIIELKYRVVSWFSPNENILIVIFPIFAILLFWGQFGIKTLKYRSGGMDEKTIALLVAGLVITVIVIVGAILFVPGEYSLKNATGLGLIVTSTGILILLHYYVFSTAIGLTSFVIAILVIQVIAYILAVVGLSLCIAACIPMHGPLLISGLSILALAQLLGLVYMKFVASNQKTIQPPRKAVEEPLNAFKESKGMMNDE
Protocol: as §1, §2

| mean fluorescence relative to chimeric antibody (rat CD47) | mean fluorescence relative to chimeric antibody (mouse CD47) | mean fluorescence relative to chimeric antibody (pig CD47) | mean fluorescence relative to chimeric antibody (human CD47) | Binder |
| --- | --- | --- | --- | --- |
| 2.2 fold of chimera | 1.3 fold of chimera | 1.2 fold of chimera | 1 fold of chimera | pVxK7b-037-hum18-LC/pVxK7b-037-hum18-HC (antibody, human IgG1, V domains shown, Full-length human IgG1/kappa in CHO supernatant; Variable entries end within framework 4 (...FGQG / ...WGQG); also called Clone 18) VH: EVQLVQSGAEVKKPGESLRISCKGSGYTFTNYYVFWIRQSPSRGLEWLGDINPVNGDTNFNEKFKNRVTITADKSTSTAYMELSSLRSEDTAVYYCARGGYTMDYWGQG VL: EIVLTQSPATLSVSPGERATLSCRSSQSLVHSNGNTYLHWYQQKPGQAPRLLIYKVSYRFSGVPSRFSGSGSGTDFTFTISSLEAEDAATYYCSQNTHVPRTFGQG |
| 2.1 fold of chimera | 1 fold of chimera | 1.1 fold of chimera | 0.9 fold of chimera | pVxK7b-037-hum16-LC/pVxK7b-037-hum16-HC (antibody, human IgG1, V domains shown, Full-length human IgG1/kappa in CHO supernatant; Variable entries end within framework 4 (...FGQG / ...WGQG); also called Clone 16) VH: QVQLQESGPGLVKPSQTLSLTCTVSGYTFTNYYVFWVRQARGQRLEWIGDINPVNGDTNFNEKFKNRVTISADKSISTAYLQWSSLKASDTAMYYCARGGYTMDYWGQG VL: AIQLTQSPSSLSASVGDRVTITCRSSQSLVHSNGNTYLHWYQQKPGQAPRLLIYKVSYRFSGVPDRFSGSGSGTDFTLKISRVEAEDVGVYYCSQNTHVPRTFGQG |
| 2.1 fold of chimera | 0.9 fold of chimera | 1.3 fold of chimera | 0.8 fold of chimera | pVxK7b-037-hum17-LC/pVxK7b-037-hum17-HC (antibody, human IgG1, V domains shown, Full-length human IgG1/kappa in CHO supernatant; Variable entries end within framework 4 (...FGQG / ...WGQG); also called Clone 17) VH: EVQLVQSGAEVKKPGATVKISCKVSGYTFTNYYVFWIRQPPGKGLEWIGDINPVNGDTNFNEKFKNRVTITADKSTSTAYMELSSLRSEDTAVYYCARGGYTMDYWGQG VL: AIQLTQSPSSLSASVGDRVTITCRSSQSLVHSNGNTYLHWYQQKPGQAPRLLIYKVSYRFSGVPDRFSGSGSGTDFTLKISRVEAEDVGVYYCSQNTHVPRTFGQG |

Second part, the binder before the results:

| Binder | mean fluorescence relative to chimeric antibody (rat CD47) | mean fluorescence relative to chimeric antibody (mouse CD47) | mean fluorescence relative to chimeric antibody (pig CD47) | mean fluorescence relative to chimeric antibody (human CD47) |
| --- | --- | --- | --- | --- |
| pVxK7b-037-hum10-LC/pVxK7b-037-hum10-HC (antibody, human IgG1, V domains shown, Full-length human IgG1/kappa in CHO supernatant; Variable entries end within framework 4 (...FGQG / ...WGQG); also called Clone 10) VH: QVQLQESGPGLVKPSQTLSLTCTVSGYTFTNYYVFWVRQARGQRLEWIGDINPVNGDTNFNEKFKNRLTISKDTSKNQVVLTMTNMDPVDTATYYCARGGYTMDYWGQG VL: DIVMTQTPLSLPVTPGEPASISCRSSQSLVHSNGNTYLHWYLQKPGQSPQLLIYKVSYRFSGVPDRFSGSGSGTDFTLKISRVEAEDVGVYYCSQNTHVPRTFGQG | 2.9 fold of chimera | 1.2 fold of chimera | 1.5 fold of chimera | 1.1 fold of chimera |
| pVxK7b-037-hum01-LC/pVxK7b-037-hum01-HC (antibody, human IgG1, V domains shown, Full-length human IgG1/kappa in CHO supernatant; Variable entries end within framework 4 (...FGQG / ...WGQG); also called Clone 1) VH: QVQLQESGPGLVKPSQTLSLTCTVSGYTFTNYYVFWVRQARGQRLEWIGDINPVNGDTNFNEKFKNRVTISADKSISTAYLQWSSLKASDTAMYYCARGGYTMDYWGQG VL: DIVMTQTPLSLPVTPGEPASISCRSSQSLVHSNGNTYLHWYQQKPGKAPKLLIYKVSYRFSGVPDRFSGSGSGTDFTLKISRVEAEDVGVYYCSQNTHVPRTFGQG | 2.7 fold of chimera | 1.7 fold of chimera | 1.3 fold of chimera | 1.1 fold of chimera |
| pVxK7b-037-hum14-LC/pVxK7b-037-hum14-HC (antibody, human IgG1, V domains shown, Full-length human IgG1/kappa in CHO supernatant; Variable entries end within framework 4 (...FGQG / ...WGQG); also called Clone 14) VH: QVQLQESGPGLVKPSQTLSLTCTVSGYTFTNYYVFWVRQARGQRLEWIGDINPVNGDTNFNEKFKNRVTISADKSISTAYLQWSSLKASDTAMYYCARGGYTMDYWGQG VL: DVVMTQSPLSLPVTLGQPASISCRSSQSLVHSNGNTYLHWYQQKPGKAPKLLIYKVSYRFSGVPDRFSGSGSGTDFTLKISRVEAEDVGVYYCSQNTHVPRTFGQG | 3.2 fold of chimera | 1.5 fold of chimera | 1.4 fold of chimera | 1.1 fold of chimera |
| pVxK7b-037-hum11-LC/pVxK7b-037-hum11-HC (antibody, human IgG1, V domains shown, Full-length human IgG1/kappa in CHO supernatant; Variable entries end within framework 4 (...FGQG / ...WGQG); also called Clone 11) VH: QVQLQESGPGLVKPGATVKISCKVSGYTFTNYYVFWVRQARGQRLEWIGDINPVNGDTNFNEKFKNRVTITADKSTSTAYMELSSLRSEDTAVYYCARGGYTMDYWGQG VL: EIVLTQSPATLSVSPGERATLSCRSSQSLVHSNGNTYLHWYQQKPGQAPRLLIYKVSYRFSGVPSRFSGSGSGTDFTFTISSLEAEDAATYYCSQNTHVPRTFGQG | 1.2 fold of chimera | 0.7 fold of chimera | 1.2 fold of chimera | 0.8 fold of chimera |
